Assay results: patent US20090123452A1 (TORREY PINES INSTITUTE FOR MOLECULAR STUDIES AND CATALYST …, published 2009)
Changes are numbered by the printed parent chain. Names and notes keep the numbering of the source. Where two headings read alike, the source gives them in different places.

Experiments:
[1] = target: T1, mutant antithrombin III AT3/SLGR-KI (human, UniProt P01008 33-464); assay: phage display selection: complex with His-tagged AT3-SLGRKI bait captured by anti-His antibody on plate
T1 construct: RCL residues IAGRSL are replaced by SLGRKI; also called AT3 (AT3/SLGR-KI)
T1 chain: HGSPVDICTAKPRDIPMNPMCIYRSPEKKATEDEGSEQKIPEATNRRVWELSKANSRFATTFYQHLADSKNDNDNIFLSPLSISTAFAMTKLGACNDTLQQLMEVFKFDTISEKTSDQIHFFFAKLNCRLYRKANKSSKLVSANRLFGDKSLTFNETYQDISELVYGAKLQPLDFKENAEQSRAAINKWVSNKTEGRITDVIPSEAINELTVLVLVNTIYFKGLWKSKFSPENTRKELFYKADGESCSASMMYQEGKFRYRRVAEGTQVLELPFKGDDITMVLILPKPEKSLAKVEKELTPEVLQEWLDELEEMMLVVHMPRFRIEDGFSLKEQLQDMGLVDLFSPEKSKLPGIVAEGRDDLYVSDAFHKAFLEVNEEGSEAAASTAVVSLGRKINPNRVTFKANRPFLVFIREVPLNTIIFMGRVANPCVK

[2] = target: T1, mutant antithrombin III AT3/SLGR-KI; assay: as above

B1: Mutant MT-SP1 clone CPC-0025720 (phage) (enzyme)
chain: VVGGTDADEGEWPWQVSLHALGQGHICGASLISPNWLVSAAHCYIDDRGFRYSDPTQWTAFLGLHDQSQRSAPGVQERRLKRIISHPFFNDFTFDYDIALLELEKPAEYSSMVRPISLPDASHVFPAGKAIWVTGWGRTQYGGTGALILQKGEIRVINQTTCENLLPQRITPRMMCVGFLSGGVDSCQGDSGGPLSSVEADGRIFQAGVVSWGDGCAQRNKPGVYTRLPLFRDWIKENTGVSGSSGGGSEGGGSEGGGSEGGGSGGGSGSGDFDYEKMANANKGAMTENADENALQSDAKGKLDSVATDYGAAIDGFIGDVSGLANGNGATGDFAGSNSQMAQVGDGDNSPLMNNFRQYLPSLPQSVECRPFVFSAGKPYEFSIDCDKINLFRGVFAFLLYVATFMYVFSTFANILRNKES
notes: C122S/H143R/Q175R
- binding result [1]: binds

B2: Mutant MT-SP1 clone CPC-0025387 (phage) (enzyme)
chain: B1 chain with I26F, R138H, R169Q
notes: I41F/C122S
- binding result [1]: binds

B3: Mutant MT-SP1 clone CPC-0026232 (phage) (enzyme)
chain: B1 chain with I26F, L37M, V124D, R138H, R169Q, Q218L
- binding result [1]: binds

B4: Mutant MT-SP1 clone CPC-0028017 (phage) (enzyme)
chain: B1 chain with R138H, R169Q, D214V
notes: C122S/D217V
- binding result [1]: binds

B5: Mutant MT-SP1 clone CPC-0027706 (phage) (enzyme)
chain: B1 chain with F92Y, I131V, R138H, R169Q, Q188H, S197I
notes: F97Y/C122S/I136V/Q192H/S201I
- binding result [1]: binds

B6: Mutant MT-SP1 clone CPC-0027484 (phage) (enzyme)
chain: B1 chain with N90K, R138H, R169Q
notes: N95K/C122S
- binding result [2]: binds

B7: Mutant MT-SP1 clone CPC-0025876 (phage) (enzyme)
chain: B1 chain with I26F, R138H, L165F, R169Q
notes: I41F/C122S/L171F
- binding result [1]: binds

B8: Mutant MT-SP1 clone CPC-0027399 (phage) (enzyme)
chain: B1 chain with F94L, R138H, R169Q
notes: F99L/C122S
- binding result [1]: binds

B9: Mutant MT-SP1 clone CPC-0028341 (phage) (enzyme)
chain: B1 chain with I26T, R138H, P167S, R169Q, Q206L
notes: I41T/C122S/P173S/Q209L
- binding result [2]: binds

B10: Mutant MT-SP1 clone CPC-0027797 (phage) (enzyme)
chain: B1 chain with H65R, P126S, R138H, R169Q, D214V
notes: H71R/C122S/P131S/D217V
- binding result [1]: binds

B11: Mutant MT-SP1 clone CPC-0028333 (phage) (enzyme)
chain: B1 chain with T59K, F88L, F92Y, R138H, R169Q, D214V
notes: T65K/F93L/F97Y/C122S/D217V
- binding result [1]: binds

B12: Mutant MT-SP1 clone CPC-0026100 (phage) (enzyme)
chain: B1 chain with I26F, R138H, I148V, R169Q, V241G
notes: I41F/C122S/I154V/V244G
- binding result [1]: binds
